Source: PMC5584224, “Peptide-based PET imaging of the tumor restricted IL13RA2 biomarker” (Oncotarget, 2017)
Several values for one entry are separate records, joined by “and”; a condition that tells them apart may be missing. Equal entries are not always repeated. Non-standard residues stand in square brackets, D forms with d. Residues, ends and D or L forms follow the SMILES beside them. *: point of attachment. Biotin = O=C1N[C@H]2[C@H](CS[C@H]2CCCCC(=O)*)N1; Ahx = NCCCCCC(=O)O

Key:
[1] = cited from earlier work
Excerpt: Pep-1L was conjugated with NOTA, a chelator that can form a six-coordinate complex with Cu-64 that results in a high stability constant (log K=21.6) by CPC scientific Inc.. […] The Cu-64 radiolabeling conditions for Pep-1L were well optimized in this work for high radiochemical purity of >98%, without any need for additional purification methodologies with a specific activity of 32-35 MBq/μg (Figure 1).

in vivo = assay: in vivo; design: species or system mice; details: athymic nude, mouse, iv, total radioactivity, tumor uptake
Protocol: (§1) 7 days after tumor cell implantations, mice were divided into induced and uninduced (control) groups (n=4/group). To induce hIL13RA2 expression, doxycycline was administered intraperitoneally (2.5 mg/mouse) every 12 hours for 2 days. After IL13RA2-induction, [^64Cu]Pep-1L was intravenously injected to mice bearing induced or control (uninduced) subcutaneous tumors and microPET/CT imaging was performed 4 h post intravenous injection. […] Other notable findings were that there was radiotracer accumulation in liver and kidney in both induced and control animals, which are primary organs for peptide clearance. […]
(§2) B16F10 murine melanoma cell line was cultured in DMEM base media. […] Cell number was calculated using a hemocytometer and required number of B16F10 cells was suspended in DMEM media. […]
(§3) Mice bearing subcutaneous tumors were grouped into two groups (n=4) and placed in an induction chamber containing ~2% isoflurane/oxygen then secured to a custom double bed for placement of tail vein catheters. […] Samples of tumor, blood, lung, liver, spleen, kidney, muscle and heart were harvested, weighed and then counted on the gamma counter with a standard dilution of the injectate. The percentage of the injected dose per gram of tissue (%ID/g) was calculated as described above with p values ≤ .05 considered statistically significant (n=4).

[2] = Biodistribution in mice bearing IL13RA2-expressing G48 xenografts; type: in vivo; details: athymic nude, mouse, in vivo, iv, total radioactivity
Protocol: (§4) Biodistribution studies with [^64Cu]Pep-1L were performed in mice bearing IL13RA2-expressing G48 tumors (n=4) to confirm in vivo binding. […] The uptake ratios for target to non-target (tumor: muscle) increased from 3.7 to 6.0 from 4 h to 24 h (Figure 4B).
(§5) Figure 4 In vivo properties of [^64Cu]Pep-1L (A) biodistribution and (B) tumor-to-muscle (target: nontarget) ratio of [^64Cu]Pep-1L in mice bearing IL13RA2-expressing tumor xenografts 4h and 24h post injection (n=4) with p values ≤ .05 considered statistically significant.
(§6) Athymic nude mice (Taconic Farms) were housed in a pathogen-free facility of the Animal Research Program at Wake Forest School of Medicine under a 12:12-h light/dark cycle and fed ad libitum. All animal experiments were conducted under IACUC approved protocols in compliance with the guidelines for the care and use of research animals established by Wake Forest Medical School Animal Studies Committee. IL13RA2-expressing G48 tumors cells (1 × 10^5 cells suspended in 10 μL) were implanted in the left flank of nude mice (25-30 g) as described previously. The presence of viable tumors was confirmed through bioluminescence imaging. Standard biodistribution studies were performed in the same nude mice with flank tumors (n=4) at 10-15 days after tumor implantation. Mice were anesthetized with 1% isoflurane-oxygen and approximately 3.7- 4.6 MBq of [^64Cu]Pep-1L was administered via tail vein injection. […] Peptide concentration of 15 mg/kg was used as the blocking agent and was intravenously injected via tail vein 15 min prior to the radiotracer. The tumor and organs of interest were dissected and gamma counted using Wallac 1480 Wizard gamma counter (Perkin Elmer, Turku, Finland). The concentration of the radioactivity in the tumor and organs were expressed in percentage injected dose per gram (%ID/g) of radioactivity with p values ≤ .05 considered statistically significant and uptake ratio of tumor-to-muscle was calculated.

[3] = tested on: IL13RA2-expressing G48 tumors; assay: as above; type: in vivo; details: G48 tumor bearing mice, 24 h post injection, non-blockade vs blockade group
Protocol: as §4, §5, §6

[4] = tested on: B16F10-Tet-hIL13RA2 tumors; assay: microPET/CT imaging, ROI analysis, in doxycycline-inducible B16F10-Tet-hIL13RA2 tumor model; type: in vivo, mice
Protocol: as §1, §2, §3

in vitro = details: human, human serum
Protocol: The in vitro serum stability of the radiotracer [^64Cu]Pep-1L in human serum was performed at different time points and was analyzed through radioTLC spotting (Figure 2).
Figure 2 In vitro serum stability of [^64Cu]Pep-1L Reverse-phase C18 radio-TLC analysis of [^64Cu]Pep-1L over a 24 hour period post production.
The in vitro serum stability of [^64Cu]Pep-1L was performed using human serum (Sigma Aldrich) following previously published methods [38, 48]. Approximately 0.037 MBq/10 μL of [^64Cu]Pep-1L was added to the serum vial, to a final volume of 100 μL and incubated at 37°C [35]. 1 μL of the sample mixture was removed and spotted on a reverse C18-TLC plate at 1 h, 2 h, 4 h, 18 h and 24 h after the radiotracer synthesis and the percentage of bound Cu-64 was determined through radioTLC analysis as mentioned above [48].

[5] = tested on: IL13RA2-expressing G48 cells; assay: In vitro cell uptake assay with and without unlabeled Pep-1L blockade; type: cell-based, human
Protocol: Previously, we reported that this cell line contains about 4,000,000 IL13RA2 binding sites.
Figure 3 Cell uptake of [^64Cu]Pep-1L Uptake of [^64Cu]Pep-1L in IL13RA2-expressing G48 cells after 1, 3, and 4 h of exposure. […] The data were expressed as % injected dose (ID)/mg of protein present in each well with p values ≤ .005 considered statistically significant (n=6).
The in vitro reactivity, binding affinity and specificity for [^64Cu]Pep-1L were determined using human GBM cell line G48, following previously reported methods. 1 × 10^5 cells were then seeded into each well of a 6-well culture. G48 cells were incubated overnight at 37°C with 5% CO2 in an incubator. […] The radioactivity was counted using the Wallac 1480 Wizard gamma counter (Perkin Elmer, Turku, Finland). […]
The uptake data in each sample from each well and the standard counts for each condition were expressed as counts per minute (cpm) of activity and were decay corrected for elapsed time. The cpm values of each well were normalized to the amount of radioactivity added to each well and the protein concentration in the well and expressed as percent uptake relative to the control condition. The data were expressed as %ID/mg of protein present in each well with p values ≤ 0.005 considered statistically significant.

O=C(O)CN1CCN(CC(=O)O)CCN(CC(=O)O)CC1 [NOTA, 1,4,7-triazacyclononane-1,4,7-triacetic acid]
stability constant (log K) of six-coordinate complex with Cu-64 [1]: 21.6

CSCC[C@H](NC(=O)[C@H](CCC(=O)O)NC(=O)CNC(=O)[C@H](CS)NC(=O)[C@H](C)N)C(=O)NCC(=O)N[C@@H](Cc1c[nH]c2ccccc12)C(=O)N[C@H](C(=O)N[C@@H](CCCNC(=N)N)C(=O)N[C@@H](CS)C(=O)NCC(=O)NCC(=O)NCC(=O)N[C@@H](CO)C(=O)NCCCCCC(=O)N[C@@H](CCCCN)C(=O)N[C@@H](CCCCNC(=O)CCCC[C@@H]1SC[C@@H]2NC(=O)N[C@@H]21)C(N)=O)C(C)C [[^64Cu]Pep-1L, metal not drawn] (H-ACGEMGWVRCGGGS[Ahx]KK(Biotin)-NH2)
tissue uptake at 4 h (in vivo; doxycycline-induced tumors): 14.1 ± 0.246 %ID/g | tissue uptake at 4 h (in vivo; non-induced tumors): 4.179 ± 0.007 %ID/g | tissue to tissue ratio at 4 h [2]: 3.7 | tissue to tissue ratio at 24 h [2]: 6 | tissue uptake at 24 h ([2]; blood uptake, 24 h non-blockade): 0.62 ± 0.579 %ID/g | tissue uptake at 4 h ([2]; brain uptake, 4 h): ~0.013 %ID/g | tissue uptake at 24 h ([2]; brain uptake, 24 h): ~0.009 %ID/g | tissue uptake at 24 h ([2]; heart uptake, 24 h non-blockade): 1.21 ± 1.01 %ID/g | tissue uptake at 24 h ([2]; kidney uptake, 24 h non-blockade): 17.4 ± 1.41 %ID/g | tissue uptake at 24 h ([2]; liver uptake, 24 h non-blockade): 9.86 ± 1.59 %ID/g | tissue uptake at 24 h ([2]; lung uptake, 24 h non-blockade): 3.58 ± 1.08 %ID/g | tissue uptake at 24 h ([2]; muscle uptake, 24 h non-blockade): 0.41 ± 0.038 %ID/g | tissue uptake at 24 h ([2]; tumor uptake, 24 h non-blockade): 2.43 ± 0.626 %ID/g | tissue uptake at 4 h ([2]; nude mice with G48 flank tumors, 3.7-4.6 MBq i.v. tail vein, 4 h post injection, gamma counting, mean ± SD, n=4, read-out: tumor uptake, 4 h): 1.38 ± 0.09 %ID/g | blockade of tumor uptake by pre-injected unlabeled peptide [3]: 5 fold and 3 fold | tumor accumulation, doxycycline-induced vs non-induced (ROI analysis of microPET/CT) ([4]; athymic nude mice, 4.62-5.5 MBq i.v., 20 min scan 4 h post injection, doxycycline 2.5 mg/mouse i.p. every 12 h for 2 days, n=4/group): ~ 3 fold | binding of induced vs uninduced tumors (PET/CT and post-necropsy biodistribution, abstract) ([4]; summary of PET/CT and post-necropsy biodistribution, doxycycline pretreatment): 3-4 fold | remaining at 24 h, 0.37 MBq/mL (in vitro): ~90% | cell uptake in G48 cells under binding site blockade with unlabeled Pep-1L ([5]; 0.0185 MBq/well, 37°C, 1, 3, 4 h, blocker 5 μM (50x excess) unlabeled peptide 15 min before tracer, gamma counting, %ID/mg protein): significantly inhibited | course of cell uptake over time ([5]; 37°C, 1 to 4 h exposure): continued increase
